The values below come from patent US20210102001A1 (CHIMAGEN BIOSCIENCES, published 2021).

Experiment [1] deals with T1, human CD19 (His-tagged) (human, UniProt P15391 20-291).
T1 construct: Captured on chips carrying anti-histidine antibodies
T1 sequence (looked up): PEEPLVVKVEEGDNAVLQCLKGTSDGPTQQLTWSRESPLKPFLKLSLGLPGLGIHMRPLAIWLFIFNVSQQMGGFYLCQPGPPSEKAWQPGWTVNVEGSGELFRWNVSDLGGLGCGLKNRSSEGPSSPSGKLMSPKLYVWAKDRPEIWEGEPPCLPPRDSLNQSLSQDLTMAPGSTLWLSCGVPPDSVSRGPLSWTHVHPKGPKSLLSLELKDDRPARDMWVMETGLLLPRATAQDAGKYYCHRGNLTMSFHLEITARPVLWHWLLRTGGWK
Put plainly: SPR (BIAcore); human CD19 captured on anti-His antibody chip, antibody at 5 concentrations. The protocol: (§1) Binding affinity for human CD3E or human CD19 of the CD3×CD19×CD8 tri-specific antibody was tested by BIAcore. Kₐ, Kd and KD were calculated from the experimental results and used to evaluate affinity of the antibodies for human CD3E and CD19. CD3E and CD19 molecules as ligands were immobilized to chips conjugated with anti-histine antibodies. Antibody molecules in five different concentrations were analyzed for their affinity for CD19. Affinity for human CD3E was examined using the same method.

The target of experiment [2] is T2, human CD3E (human, UniProt P07766 23-126, limits assumed).
T2 construct: Captured on chips carrying anti-histidine antibodies, 'using the same method' as the His-tagged CD19
T2 sequence (P07766 23-126 limits assumed): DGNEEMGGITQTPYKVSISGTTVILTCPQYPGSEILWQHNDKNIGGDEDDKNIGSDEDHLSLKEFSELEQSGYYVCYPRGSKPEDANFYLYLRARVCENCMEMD
In words: SPR (BIAcore); human CD3E captured on anti-His antibody chip, antibody at 5 concentrations. As to the method:
as §1

B1: Antibody #55, CD3×CD19×CD8 tri-specific antibody (other)
chain 1: EIVLTQSPATLSVTPGERATLSCSASSSVSYMHWYQKKPGQAPRLLIYDTSKLASGIPARFSGSGSGTDFTLTISSLEPEDFAVYYCFQGSVYPFTFGCGTKLEIKRTVAAEVQLVESGGGLVQPGGSLRLSCAASGFTFNTYAMNWVRKAPGKGLEWVGRIRSKYNNYATYYADSVDKGRFTISRDDSKNSLYLQMNSLKTEDTAVYYCVRHGNFGNSYVSWFAYWGQGTLVTVSS
chain 2: EAVVTQEPSLTVSPGGTVTLTCRSSTGAVTTSNYANWVQDKPGQAPRGLIGGTNKRAPWTPARFSGSLLGGKAALTITGAQPEDEAGYYCALWYSNLWVFGGGTKLTVLRTVAAQVQLQESGPGLVKPSQTLSLTCTVSGGSISTSGMGVGWIRDHPGKCLEWIGHIWWDDDKRYNPALKSRVTISVDTSKNQFSLKLSSVTAADTAVYYCARMELWSYYFDYWGQGTTLTVSSASEPKSDKTHTCPPCPAPPVAGGPSVPLPPPKPKDTLMISRTPEVTCVVVDVSQEDPEVKFNWYVDGVGVHNAKTKPREEQFNSTYRVVSVLTVLHQDWLNGKEYKCKVSNKGLPSSIEKTISKAKGQPREPQVYTLPPCRDELTKNQVSLWCLVKGFYPSDIAVEWESNGQPENNYKTTPPVLDSDGSFFLYSKLTVDKSRWQQGNVFSCSVMHEALHNHYTQKSLSLSPGK
heavy: QVQLVESGGGVVQPGRSLRLSCAASGPTFSDFGMNWVRKAPGKGLEWVALIYYDGSNKFYADSVKGRFTISRDNSKNTLYLQMNSLRAEDTAVYYCAKPHYDGYYHFFDSWGQGTLVTVSSASTKGPSVFPLAPGSSKSTSGTAALGCLVKDYFPEPVTVSWNSGALTSGVHTFPAVLQSSGLYSLSSVVTVPSSSLGTQTYICNVNHKPSNTKVDKKVEPKSCDKTHTCPPCPAPPVAGGPSVFLFPPKPKDTLMISRTPEVTCVVVDVSQEDPEVKFNWYVDGVEVHNAKTKPREEQFNSTYRVVSVLTVLHQDWLNGKEYKCKVSNKGLPSSIEKTISKAKGQPREPQVCTLPPSRDELTKNQVSLSCAVKGFYPSDIAVEWESNGQPENNYKTTPPVLDSDGSFFLVSKLTVDKSRWQQGNVFSCSVMHEALHNRFTQKSLSLSPGK
light: not shown
notes: Tri-specific antibody of four chains
Take B1: the equilibrium dissociation constant (Kd) in experiment [1] was found to be 8.63 nM; in experiment [2] it was 31.3 nM.
